In article PMC6805484 (2019) one finds screen value data, which are given here for one variant.

Sequences and labels used below:
B1: GFP-MKRN1^wt (Makorin Ring Finger Protein 1, wild type, N-terminally GFP-tagged) [human] / cytoplasmic poly(A)-binding protein PABPC4 (endogenous) [human (endogenous in HEK293T)] (parent complex)
chain 1: MAEAATPGTTATTSGAGAAAATAAAASPTPIPTVTAPSLGAGGGGGGSDGSGGGWTKQVTCRYFMHGVCKEGDNCRYSHDLSDSPYSVVCKYFQRGYCIYGDRCRYEHSKPLKQEEATATELTTKSSLAASSSLSSIVGPLVEMNTGEAESRNSNFATVGAGSEDWVNAIEFVPGQPYCGRTAPSCTEAPLQGSVTKEESEKEQTAVETKKQLCPYAAVGECRYGENCVYLHGDSCDMCGLQVLHPMDAAQRSQHIKSCIEAHEKDMELSFAVQRSKDMVCGICMEVVYEKANPSERRFGILSNCNHTYCLKCIRKWRSAKQFESKIIKSCPECRITSNFVIPSEYWVEEKEEKQKLILKYKEAMSNKACRYFDEGRGSCPFGGNCFYKHAYPDGRREEPQRQKVGTSSRYRAQRRNHFWELIEERENSNPFDNDEEEVVTFELGEMLLMLLAAGGDDELTDSEDEWDLFHDELEDFYDLDL
chain 2: MNAAASSYPMASLYVGDLHSDVTEAMLYEKFSPAGPVLSIRVCRDMITRRSLGYAYVNFQQPADAERALDTMNFDVIKGKPIRIMWSQRDPSLRKSGVGNVFIKNLDKSIDNKALYDTFSAFGNILSCKVVCDENGSKGYAFVHFETQEAADKAIEKMNGMLLNDRKVFVGRFKSRKEREAELGAKAKEFTNVYIKNFGEEVDDESLKELFSQFGKTLSVKVMRDPNGKSKGFGFVSYEKHEDANKAVEEMNGKEISGKIIFVGRAQKKVERQAELKRKFEQLKQERISRYQGVNLYIKNLDDTIDDEKLRKEFSPFGSITSAKVMLEDGRSKGFGFVCFSSPEEATKAVTEMNGRIVGSKPLYVALAQRKEERKAHLTNQYMQRVAGMRALPANAILNQFQPAAGGYFVPAVPQAQGRPPYYTPNQLAQMRPNPRWQQGGRPQGFQGMPSAIRQSGPRPTLRHLAPTGSECPDRLAMDFGGAGAAQQGLTDSCQSGGVPTAVQNLAPRAAVAAAAPRAVAPYKYASSVRSPHPAIQPLQAPQPAVHVQGQEPLTASMLAAAPPQEQKQMLGERLFPLIQTMHSNLAGKITGMLLEIDNSELLHMLESPESLRSKVDEAVAVLQAHHAKKEAAQKVGAVAAATS

This experiment covers variants of B1. The experiment in a line: AP with quantitative MS-based proteomics (SILAC); HEK293T cells; combined ratios of three replicates; read off a plot.
Turning to chain 1 A169S, chain 1 F172A, chain 1 P174A, the screen value is about -9.1 z-score.
